Source: patent US20220213176A1 (SHANGHAITECH UNIVERSITY, published 2022)

T1: HCoV-229E spike (HCoV-229E, UniProt P15423 16-1173)
T1 construct: whole, on cells
T1 sequence: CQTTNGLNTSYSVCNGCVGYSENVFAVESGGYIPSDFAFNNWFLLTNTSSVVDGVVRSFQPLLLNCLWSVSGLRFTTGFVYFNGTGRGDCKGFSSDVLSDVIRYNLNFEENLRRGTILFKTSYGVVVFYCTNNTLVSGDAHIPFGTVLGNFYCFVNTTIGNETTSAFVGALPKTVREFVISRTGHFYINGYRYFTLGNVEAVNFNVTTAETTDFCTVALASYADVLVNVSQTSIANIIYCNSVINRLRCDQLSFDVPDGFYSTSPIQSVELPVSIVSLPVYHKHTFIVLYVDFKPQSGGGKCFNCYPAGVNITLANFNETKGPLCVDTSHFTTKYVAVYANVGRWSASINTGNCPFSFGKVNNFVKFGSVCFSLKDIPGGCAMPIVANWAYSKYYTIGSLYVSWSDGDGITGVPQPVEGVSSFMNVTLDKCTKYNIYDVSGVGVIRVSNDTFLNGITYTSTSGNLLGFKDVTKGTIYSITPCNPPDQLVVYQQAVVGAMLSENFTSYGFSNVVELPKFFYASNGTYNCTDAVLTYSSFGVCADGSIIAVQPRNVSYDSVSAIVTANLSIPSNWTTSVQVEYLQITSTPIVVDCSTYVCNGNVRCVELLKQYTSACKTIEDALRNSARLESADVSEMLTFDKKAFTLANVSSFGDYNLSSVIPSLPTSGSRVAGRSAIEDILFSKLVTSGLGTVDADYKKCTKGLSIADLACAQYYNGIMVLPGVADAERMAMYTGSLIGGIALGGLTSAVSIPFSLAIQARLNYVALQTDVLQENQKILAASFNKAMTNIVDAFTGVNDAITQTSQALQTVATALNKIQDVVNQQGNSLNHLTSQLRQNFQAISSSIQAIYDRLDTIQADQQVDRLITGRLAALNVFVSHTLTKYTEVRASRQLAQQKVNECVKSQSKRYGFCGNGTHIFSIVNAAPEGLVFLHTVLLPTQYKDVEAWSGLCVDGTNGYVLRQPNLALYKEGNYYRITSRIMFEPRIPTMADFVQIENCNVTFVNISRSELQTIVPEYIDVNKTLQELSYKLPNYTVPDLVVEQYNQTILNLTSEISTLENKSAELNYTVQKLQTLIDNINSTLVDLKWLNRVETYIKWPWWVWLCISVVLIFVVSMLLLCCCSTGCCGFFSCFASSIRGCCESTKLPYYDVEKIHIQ

T2: HCoV-NL63 spike (HCoV-NL63, UniProt Q6Q1S2 19-1356)
T2 construct: whole, on cells
T2 sequence: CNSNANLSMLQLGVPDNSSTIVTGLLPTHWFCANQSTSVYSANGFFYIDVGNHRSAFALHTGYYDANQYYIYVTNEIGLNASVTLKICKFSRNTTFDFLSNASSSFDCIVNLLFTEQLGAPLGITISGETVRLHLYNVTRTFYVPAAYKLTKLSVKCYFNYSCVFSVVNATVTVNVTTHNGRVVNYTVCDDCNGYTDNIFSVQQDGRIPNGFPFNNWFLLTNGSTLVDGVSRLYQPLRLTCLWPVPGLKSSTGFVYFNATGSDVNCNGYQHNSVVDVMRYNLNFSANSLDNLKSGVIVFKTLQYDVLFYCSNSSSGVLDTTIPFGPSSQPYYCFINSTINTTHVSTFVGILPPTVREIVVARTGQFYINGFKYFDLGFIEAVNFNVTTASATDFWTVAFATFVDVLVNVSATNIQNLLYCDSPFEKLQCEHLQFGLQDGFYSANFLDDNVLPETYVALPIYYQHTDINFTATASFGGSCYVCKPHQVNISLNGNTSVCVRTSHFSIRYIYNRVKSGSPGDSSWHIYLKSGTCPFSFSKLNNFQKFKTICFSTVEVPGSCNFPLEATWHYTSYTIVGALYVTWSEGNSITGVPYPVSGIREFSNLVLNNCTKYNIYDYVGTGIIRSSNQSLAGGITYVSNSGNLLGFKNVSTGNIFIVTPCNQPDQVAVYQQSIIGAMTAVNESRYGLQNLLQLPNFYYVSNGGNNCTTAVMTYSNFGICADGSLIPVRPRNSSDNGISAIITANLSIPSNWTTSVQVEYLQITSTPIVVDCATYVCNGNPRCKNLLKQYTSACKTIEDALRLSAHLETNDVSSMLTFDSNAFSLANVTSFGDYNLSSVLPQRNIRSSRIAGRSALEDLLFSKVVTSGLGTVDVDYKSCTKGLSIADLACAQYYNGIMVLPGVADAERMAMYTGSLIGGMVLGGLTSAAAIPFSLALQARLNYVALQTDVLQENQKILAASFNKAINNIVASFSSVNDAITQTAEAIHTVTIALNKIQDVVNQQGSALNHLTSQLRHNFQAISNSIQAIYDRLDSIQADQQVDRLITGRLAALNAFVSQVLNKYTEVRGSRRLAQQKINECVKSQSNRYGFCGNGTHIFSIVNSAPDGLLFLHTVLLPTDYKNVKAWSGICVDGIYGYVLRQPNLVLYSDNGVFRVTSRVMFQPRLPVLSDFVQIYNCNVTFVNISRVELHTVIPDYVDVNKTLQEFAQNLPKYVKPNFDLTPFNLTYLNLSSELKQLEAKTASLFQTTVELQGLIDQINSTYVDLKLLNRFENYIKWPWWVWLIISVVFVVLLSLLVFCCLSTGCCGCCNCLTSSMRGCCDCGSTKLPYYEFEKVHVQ

B1: S-E6 (antibody, V domains shown)
VH: QVTLRESGPGLVKPSETLSLTCAVSGGSLSSVNYYWSWIRQHPGKGLEWIGYIYYSGSTNYNPSLKSRVTMSLDTSKNQFSLKLSSVTAADTAVYYCATPGAIMGALHIWGQGTLVTVSS
VL: QAVLTQPSSASSTPGQRVIISCSGSSSNIGSNTVSWYQQVPGAAPKLLIYFDYRRPSGVPDRFSGTRSGTSASLGISGLQSEDEADYYCAAWDDSLSAWVFGRGTKLTVLG
notes: also called S-E6 dimer; dimer S-E6
B2: S-B8 (antibody, V domains shown)
VH: QVQLVQSGGGLIQPGGSLRLSCAASGFTVSLSHMNWVRQAPGKGLEWVSITYGDGNSDYADSVKGRFTISRDNSKNTLYLQMNSLRAEDTAVYYCAREYYYGMDVWGQGTTVTVSS
VL: not shown
notes: also called S-B8 dimer
B3: S-D4 (antibody, V domains shown)
VH: QVQLQESGGGVVQPGRSLRLSCEVSGFTFSDYGMHWVRQAPGKGLEWVAVIWSEGSTEYYADSVKGRFTISRDNSKDTLYLQMNSLRAEDTAVYYCARPGYPTSTDRSPAAAGARQYYYYGMDVWGQGTTVTVSS
VL: NFMLTQPHSVSESPGKTVTISCTRSGGSGAANYVQWYQQRPGSSPTTLIYEDSRRPPGVPDRFSGSVDTSSNSASLTISGLQTEDEADYYCQSYDSSNHVVFGGGTKLTVLG
notes: also called S-D4 dimer; S-D4 IgG4

What follows are binders tested against T1, HCoV-229E spike (assay: FACS, transfected HEK293T cells, IgG4 antibody).

**Q.** Does B1 bind?
**A.** no binding

**Q.** Does B2 bind?
**A.** no binding

**Q.** Does B3 bind?
**A.** no binding

Each binder was assayed against T2, HCoV-NL63 spike (assay: FACS, transfected HEK293T cells, IgG4 antibody).

**Q.** Does B1 bind?
**A.** no binding

**Q.** Does B2 bind?
**A.** no binding

**Q.** Does B3 bind?
**A.** no binding
